Residue numbers refer to the chain shown, from its start. Names and notes keep the numbering of the source. Like-named read-outs stand apart in the source and are kept apart here. Each block holds one binder with its values, some of them ahead of it.
Columns and labels:
[1] = molecular target: T1, mouse FcγRI (mouse, UniProt P26151 25-297); assay: SPR, antibody captured by Protein L, mouse FcγR as analyte, pH 7.4, 25 C
T1 construct: bought; also called mFcgRI; mFcgR 1
T1 sequence (looked up): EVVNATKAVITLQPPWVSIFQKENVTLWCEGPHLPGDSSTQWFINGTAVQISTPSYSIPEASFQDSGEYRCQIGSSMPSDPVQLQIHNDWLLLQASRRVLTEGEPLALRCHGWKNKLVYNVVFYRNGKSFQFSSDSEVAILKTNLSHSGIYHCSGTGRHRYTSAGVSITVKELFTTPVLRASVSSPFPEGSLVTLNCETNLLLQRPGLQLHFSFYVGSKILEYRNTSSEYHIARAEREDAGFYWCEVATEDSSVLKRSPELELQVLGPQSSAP

[2] = molecular target: T2, mouse FcγRIIb (mouse, UniProt P08101 30-207, limits assumed); assay: as above
T2 construct: bought; also called mFcgRIIb; mFcgR IIb
T2 sequence (looked up): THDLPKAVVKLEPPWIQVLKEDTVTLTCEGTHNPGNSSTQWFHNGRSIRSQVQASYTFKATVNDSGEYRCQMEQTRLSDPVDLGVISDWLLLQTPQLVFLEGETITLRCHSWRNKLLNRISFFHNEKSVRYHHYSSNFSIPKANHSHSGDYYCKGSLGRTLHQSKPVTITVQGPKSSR

[3] = molecular target: T3, mouse FcγRIII (mouse, UniProt P08508 31-215); assay: as above
T3 construct: bought; also called mFcgRIII; mFcgR III
T3 sequence (looked up): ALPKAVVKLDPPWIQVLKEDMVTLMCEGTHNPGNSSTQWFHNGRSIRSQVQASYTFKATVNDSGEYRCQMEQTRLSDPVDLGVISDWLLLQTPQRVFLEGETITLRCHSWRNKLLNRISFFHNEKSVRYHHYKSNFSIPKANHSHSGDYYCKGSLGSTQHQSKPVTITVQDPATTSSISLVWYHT

[4] = molecular target: T4, mouse FcγRIV (mouse, UniProt A0A0B4J1G0 21-203); assay: as above
T4 construct: bought; also called mFcgRIV; mFcgR IV; the vendor's purification tag not given
T4 sequence: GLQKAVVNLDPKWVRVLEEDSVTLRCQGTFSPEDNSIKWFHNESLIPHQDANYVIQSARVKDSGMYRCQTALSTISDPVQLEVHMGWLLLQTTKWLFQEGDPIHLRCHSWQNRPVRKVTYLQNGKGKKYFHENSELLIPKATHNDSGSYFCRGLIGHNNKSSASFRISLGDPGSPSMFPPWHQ

[5] = molecular target: T5, human FcγRIa (human, UniProt P12314 16-292, limits assumed); assay: SPR, pH 7.4, antibody captured by Protein L
T5 construct: also called FcgRIa; hFcgRIa

[6] = molecular target: T6, human FcγRIIa(R) (human, UniProt P12318 36-217); assay: SPR, pH 7.4, antibody captured by Protein L
T6 construct: also called FcgRIIaR; hFcgRIIa(R)
T6 chain: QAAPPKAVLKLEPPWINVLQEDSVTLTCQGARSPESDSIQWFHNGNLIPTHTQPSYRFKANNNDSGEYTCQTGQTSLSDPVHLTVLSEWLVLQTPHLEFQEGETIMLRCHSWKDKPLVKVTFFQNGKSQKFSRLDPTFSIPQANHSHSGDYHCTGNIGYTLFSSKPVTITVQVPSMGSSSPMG

[7] = molecular target: T7, human FcγRIIa(H) (human, UniProt P12318 36-217); assay: SPR, pH 7.4, antibody captured by Protein L
T7 construct: also called FcgRIIaH; hFcgRIIa(H)
T7 sequence: T6 chain with R133H

[8] = molecular target: T8, human FcγRIIb (human, UniProt P31994 43-217, limits assumed); assay: SPR, pH 7.4, antibody captured by Protein L
T8 construct: also called FcgRIIb; hFcgRIIb
T8 sequence: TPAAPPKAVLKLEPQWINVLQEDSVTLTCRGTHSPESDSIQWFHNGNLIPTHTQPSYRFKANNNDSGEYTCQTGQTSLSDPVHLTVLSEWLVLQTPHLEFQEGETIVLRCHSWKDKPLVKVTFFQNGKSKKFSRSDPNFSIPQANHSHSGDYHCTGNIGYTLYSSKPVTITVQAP

[9] = molecular target: T9, human FcγRIIIa(V) (human, UniProt P08637 17-208, limits assumed); assay: SPR, pH 7.4, antibody captured by Protein L
T9 construct: also called hFcgRIIIa(V); FcγRIIIa allotype V158

[10] = molecular target: T10, human FcRn (soluble human FcRn complexed with β2-microglobulin) (human, UniProt P61769 21-119, limits assumed); assay: SPR, antibody captured by Protein L, human FcRn as analyte, pH 7.0, 25 C
T10 construct: also called hFcRn

[11] = molecular target: T1, mouse FcγRI; assay: SPR, antibody captured by Protein L, mouse FcγR as analyte, pH 7.4, 25 C; remark: listed apart in the source
[12] = molecular target: T2, mouse FcγRIIb; assay: as above; remark: listed apart in the source
[13] = molecular target: T3, mouse FcγRIII; assay: as above; remark: listed apart in the source
[14] = molecular target: T4, mouse FcγRIV; assay: as above; remark: listed apart in the source
[15] = molecular target: T11, human FcγRIIb (human, UniProt P31994 43-217, limits assumed); assay: SPR, antibody captured by Protein L, human FcγR as analyte, pH 7.4, 25 C;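 note: biacore T100 or T200 with Protein L amine-coupled on a CM4 chip, FcγRs diluted in ACES saline with polysorbate 20, buffer-only injection as blank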
T11 construct: also called hFcgRIIb; FcγIIB
T11 sequence: T8 sequence

[16] = molecular target: T12, human FcγRIIIa(V) (human, UniProt P08637 17-208, limits assumed); assay: as above
T12 construct: also called hFcgRIIIa(V); allotype V158

[17] = molecular target: T13, human FcγRIa (human, UniProt P12314 16-292, limits assumed); assay: as above
T13 construct: also called hFcgRIa; hFcgRI

[18] = molecular target: T14, human FcγRIIa(R) (human, UniProt P12318 36-217); assay: as above
T14 construct: also called hFcgRIIa(R); FcγRIIa type R
T14 chain: T6 chain

[19] = molecular target: T15, human FcγRIIa(H) (human, UniProt P12318 36-217); assay: as above
T15 construct: also called hFcgRIIa(H); FcγRIIa type H
T15 sequence: T6 chain with R133H

B1: antibody with mPM1H-mIgG1 heavy chain and L(WT)-CK light chain (antibody)
heavy: DVQLQESGPVLVKPSQSLSLTCTVTGYSITSDHAWSWIRQFPGNKLEWMGYISYSGITTYNPSLKSRISITRDTSKNQFFLQLNSVTTGDTSTYYCARSLARTTAMDYWGQGTSVTVSSAKTTPPSVYPLAPGSAAQTNSMVTLGCLVKGYFPEPVTVTWNSGSLSSGVHTFPAVLQSDLYTLSSSVTVPSSTWPSETVTCNVAHPASSTKVDKKIVPRDCGCKPCICTVPEVSSVFIFPPKPKDVLTITLTPKVTCVVVDISKDDPEVQFSWFVDDVEVHTAQTQPREEQFNSTFRSVSELPIMHQDWLNGKEFKCRVNSAAFPAPIEKTISKTKGRPKAPQVYTIPPPKEQMAKDKVSLTCMITDFFPEDITVEWQWNGQPAENYKNTQPIMDTDGSYFVYSKLNVQKSNWEAGNTFTCSVLHEGLHNHHTEKSLSHSPGK
light: not shown
notes: mouse IgG1 heavy chain with natural mouse Fc region; also called mPM1-mIgG1; copies: 2 + 2
BINDING AMOUNT (RU) [1]: -2 RU | BINDING AMOUNT (RU) [2]: 202 RU | BINDING AMOUNT (RU) [3]: 450 RU | BINDING AMOUNT (RU) [4]: -3.5 RU

B6: VH3-IgG2-F890/L(WT)-CK (antibody)
heavy: QVQLQESGPGLVKPSETLSLTCAVSGHSISHDHAWSWVRQPPGEGLEWIGFISYSGITNYNPSLQGRVTISRDNSKNTLYLQMNSLRAEDTAVYYCARSLARTTAMDYWGEGTLVTVSSASTKGPSVFPLAPCSRSTSESTAALGCLVKDYFPEPVTVSWNSGALTSGVHTFPAVLQSSGLYSLSSVVTVPSSNFGTQTYTCNVDHKPSNTKVDKTVERKCCVECPPCPAPPVAGPSVFLFPPKPKDTLYISRTPEVTCVVVDVSHEDPEVQFNWYVDGVEVHNAKTKPREEQFNSTFRVVSVLTVVHQDWLNGKEYKCKVSNKGLPAPIEKTISKTKGQPREPQVYTLPPSREEMTKNQVSLTCLVKGFYPSDIAVEWESNGQPENNYKTTPPMLDSDGSFFLYSKLTVDKSRWQQGNVFSCSVMHEALHYHVTQKSLSLSP
light: not shown
notes: M252Y/N434Y/Y436V in VH3-IgG2; copies: 2 + 2
binding amount [5]: 19.7 RU | binding amount [6]: 120 RU | binding amount [7]: 204 RU | binding amount [8]: 31.9 RU | binding amount [9]: 28.1 RU

B7: VH3-IgG2/L(WT)-CK (antibody)
heavy: B6 heavy with Y250M, Y432N, V434Y
light: not shown
notes: copies: 2 + 2
binding amount [5]: 38.6 RU | binding amount [6]: 188 RU | binding amount [7]: 266 RU | binding amount [8]: 55.5 RU | binding amount [9]: 50.1 RU

B9: antibody with VH3-IgG1-F890 heavy chain and L(WT)-CK light chain (antibody)
heavy: QVQLQESGPGLVKPSETLSLTCAVSGHSISHDHAWSWVRQPPGEGLEWIGFISYSGITNYNPSLQGRVTISRDNSKNTLYLQMNSLRAEDTAVYYCARSLARTTAMDYWGEGTLVTVSSASTKGPSVFPLAPSSKSTSGGTAALGCLVKDYFPEPVTVSWNSGALTSGVHTFPAVLQSSGLYSLSSVVTVPSSSLGTQTYICNVNHKPSNTKVDKKVEPKSCDKTHTCPPCPAPELLGGPSVFLFPPKPKDTLYISRTPEVTCVVVDVSHEDPEVKFNWYVDGVEVHNAKTKPREEQYNSTYRVVSVLTVLHQDWLNGKEYKCKVSNKALPAPIEKTISKAKGQPREPQVYTLPPSRDELTKNQVSLTCLVKGFYPSDIAVEWESNGQPENNYKTTPPVLDSDGSFFLYSKLTVDKSRWQQGNVFSCSVMHEALHYHVTQKSLSLSP
light: not shown
notes: M252Y/N434Y/Y436V; copies: 2 + 2
Kd [10]: 110 nM | BINDING AMOUNT (RU) [11]: 268 RU | BINDING AMOUNT (RU) [12]: 69.3 RU | BINDING AMOUNT (RU) [13]: 284 RU | BINDING AMOUNT (RU) [14]: 230 RU | BINDING AMOUNT (RU) [15]: 54.1 RU | BINDING AMOUNT (RU) [16]: 180 RU | BINDING AMOUNT (RU) [17]: 363 RU | BINDING AMOUNT (RU) [18]: 128 RU | BINDING AMOUNT (RU) [19]: 117 RU

The next lines start with the values.

BINDING AMOUNT (RU) [1]: -3 RU | BINDING AMOUNT (RU) [2]: -5.2 RU | BINDING AMOUNT (RU) [3]: -18.7 RU | BINDING AMOUNT (RU) [4]: -8.9 RU
B2: antibody with mPM1H-mIgG1-mF40 heavy chain (antibody)
heavy: B1 heavy with P231K, S235K, T248Y, T252E, N430W
light: not shown
notes: P235K/S239K/T252Y/T256E/N434W; also called mPM1-mIgG1-mF40; copies: 2 + 2

BINDING AMOUNT (RU) [1]: -3.7 RU | BINDING AMOUNT (RU) [2]: 184 RU | BINDING AMOUNT (RU) [3]: 447 RU | BINDING AMOUNT (RU) [4]: -8 RU
B3: antibody with mPM1H-mIgG1-mF14 heavy chain (antibody)
heavy: B1 heavy with T248Y, T252E, H429K
light: not shown
notes: T252Y/T256E/H433K; also called mPM1-mIgG1-mF14; copies: 2 + 2

BINDING AMOUNT (RU) [1]: -2 RU | BINDING AMOUNT (RU) [2]: 161 RU | BINDING AMOUNT (RU) [3]: 403 RU | BINDING AMOUNT (RU) [4]: -4.1 RU
B4: antibody with mPM1H-mIgG1-mF38 heavy chain (antibody)
heavy: B1 heavy with T248Y, T252E, N430W
light: not shown
notes: T252Y/T256E/N434W; also called mPM1-mIgG1-mF38; copies: 2 + 2

BINDING AMOUNT (RU) [1]: -3.1 RU | BINDING AMOUNT (RU) [2]: -3 RU | BINDING AMOUNT (RU) [3]: -8.4 RU | BINDING AMOUNT (RU) [4]: -3.8 RU
B5: antibody with mPM1H-mIgG1-mF39 heavy chain (antibody)
heavy: B1 heavy with P231K, S235K, T248Y, T252E, H429K
light: not shown
notes: P235K/S239K/T252Y/T256E/H433K; also called mPM1-mIgG1-mF39; copies: 2 + 2

Kd [10]: 310 nM | BINDING AMOUNT (RU) [11]: 0.6 RU | BINDING AMOUNT (RU) [12]: -4.5 RU | BINDING AMOUNT (RU) [13]: -20.3 RU | BINDING AMOUNT (RU) [14]: -3.8 RU
B8: antibody with VH3-IgG1-F821 heavy chain and L(WT)-CK light chain (antibody)
heavy: B9 heavy with L237R, S241K, V438Y
light: not shown
notes: L235R/S239K/M252Y/N434Y; copies: 2 + 2

Kd [10]: 150 nM | BINDING AMOUNT (RU) [11]: -2 RU | BINDING AMOUNT (RU) [12]: -6.3 RU | BINDING AMOUNT (RU) [13]: -24.9 RU | BINDING AMOUNT (RU) [14]: -7.3 RU | BINDING AMOUNT (RU) [15]: -0.2 RU | BINDING AMOUNT (RU) [16]: -0.75 RU | BINDING AMOUNT (RU) [17]: -2.37 RU | BINDING AMOUNT (RU) [18]: -0.8 RU | BINDING AMOUNT (RU) [19]: -0.9 RU
B10: antibody with VH3-IgG1-F939 heavy chain and L(WT)-CK light chain (antibody)
heavy: B9 heavy with L237R, S241K
light: not shown
notes: L235R/S239K/M252Y/N434Y/Y436V; copies: 2 + 2
